Data on 13 molecules can be found in paper PMC13480645 (PLOS Pathogens, 2026).

Positions count from the first letter of the chain named.

The target of test [1] is T1, SARS-CoV-2 S-2P protein (SARS-CoV-2, ancestral (Wuhan-Hu-1) …, UniProt P0DTC2, stabilised). The test is described as follows: BLI. As to conditions: both partners purified.
Test [2] addresses T1, SARS-CoV-2 S-2P protein. The test is described as follows: cell-based or functional assay.

B1: eCC65.1-12 (antibody, V domains shown)
VH: EVQLVQSGAEVKKPGASVKVSCKASGYTFTSQYMHWVRQAPGQGLEWMGIIDPSGGGTSYAQKFRDRVSMTRDTPTSTVYMELRSLRSEDTAVYYCASLWFENPSWRDYWGQGTLVTVSS
VL: DVVMTQSPGTLSLSPGERATLSCRASQTVNKNYLAWYQQKPGQAPRLLIYHASSRATGIPDRFSGSGSGTDFTLTISRLEPEDFAVYYCQQYGASPPLFTFGPGTKLEIK
As a reminder, the Kd is the constant that tells how readily two partners part at equilibrium. Read a low Kd as tighter binding. What is called kon is a measure of how fast the partners come together. B1: in the test with SARS-CoV-2 S-2P protein [1], the Kd is < 0.001 nM and the kon was 273000 M⁻¹ s⁻¹. Besides, the “IC50 of neutralisation of SARS-CoV-2 pseudovirus (HeLa-hACE2 cells)” value (from here on “IC50”) with SARS-CoV-2 S-2P protein [2] stood at 5.77 µg/mL.

B2: eCC65.1-8 (antibody, V domains shown)
VH: VQLVQSGAEVKKPGASVKVSCKASGYEFTSQYMHWVRQAPGQGLEWMGIIDPSGGGASYAQKFRDRVSMTRDTPTSTVYMELRSLRSEDTAVYYCASLWFGNPSWRDYWGQGTLVTVSS
VL: VMTQSPGTLSLSPGERATLSCRASQTVNSNYLAWYQQKPGQAPRLLIYHASSRATGIPDRFSGSGSGTDFTLTISRLEPEDFAVYYCQQYQSSPPLFTFGPGTKLEIK
In the test with SARS-CoV-2 S-2P protein [1], B2 showed a Kd of 0.945 nM and a kon of 258000 M⁻¹ s⁻¹. The “IC50” value in the test with SARS-CoV-2 S-2P protein [2] was found to be 3.95 µg/mL.

B3: eCC65.1-3 (antibody, V domains shown)
VH: B2 VH with E27T, S53E, A57T, G101E, N102Q
VL: B2 VL with S29K, Q91G, S92A
For B3, in the test with SARS-CoV-2 S-2P protein [1], the Kd is < 0.001 nM and the kon amounted to 289000 M⁻¹ s⁻¹. Also, in the test with SARS-CoV-2 S-2P protein [2], the “IC50” value is 4.67 µg/mL.

B4: eCC65.1-11 (antibody, V domains shown)
VH: B2 VH
VL: B2 VL with Q25S, Q91G, S92A
B4: in the test with SARS-CoV-2 S-2P protein [1], the Kd amounted to 0.801 nM and the kon stood at 249000 M⁻¹ s⁻¹. The “IC50” value with SARS-CoV-2 S-2P protein [2] worked out at 5.26 µg/mL.

B5: eCC65.1-6 (antibody, V domains shown)
VH: B1 VH
VL: B2 VL with S29K, Q91G
In the case of B5, in the test with SARS-CoV-2 S-2P protein [1], the Kd was 0.0472 nM and the kon was 261000 M⁻¹ s⁻¹. For the same molecule, the “IC50” value with SARS-CoV-2 S-2P protein [2] came out at 2.98 µg/mL.

B6: eCC65.1-4 (antibody, V domains shown)
VH: B2 VH with E27T, T29E, S53K, A57T, G101E, N102T
VL: B2 VL with S29K, H49G, Q89T, Q91G
Regarding B6, in the test with SARS-CoV-2 S-2P protein [1], the affinity, expressed as Kd, was 0.0136 nM and the kon was 287000 M⁻¹ s⁻¹. The “IC50” value with SARS-CoV-2 S-2P protein [2] was found to be 1.84 µg/mL.

B7: eCC65.1-1 (antibody, V domains shown)
VH: B2 VH
VL: B2 VL with Q91G, S92A
Turning to B7, in the test with SARS-CoV-2 S-2P protein [1], binding was characterised by a dissociation constant (Kd) of 0.843 nM and the kon is 236000 M⁻¹ s⁻¹. The “IC50” value in the test with SARS-CoV-2 S-2P protein [2] was 5.79 µg/mL.

B8: eCC65.1-13 (antibody, V domains shown)
VH: B1 VH
VL: B2 VL with S29K, H49G, Q91G, S92A
In the test with SARS-CoV-2 S-2P protein [1], B8 registered a Kd of 0.0819 nM and a kon of 256000 M⁻¹ s⁻¹. Further, the “IC50” value with SARS-CoV-2 S-2P protein [2] is 2.41 µg/mL.

B9: eCC65.1-2 (antibody, V domains shown)
VH: B2 VH with S24T, E27T, S53K, A57T, G101E, R106T
VL: B2 VL with S29K, Q91G
With B9, in the test with SARS-CoV-2 S-2P protein [1], the Kd was < 0.001 nM and the kon worked out at 283000 M⁻¹ s⁻¹. In addition, the “IC50” value with SARS-CoV-2 S-2P protein [2] turned out to be 2.05 µg/mL.

B10: eCC65.1-7 (antibody, V domains shown)
VH: B2 VH with E27S, A57T, G101E
VL: B2 VL with S29K, Q91G, S92A
In the test with SARS-CoV-2 S-2P protein [1], B10 displayed a Kd of 0.157 nM and a kon of 270000 M⁻¹ s⁻¹. Also, in the test with SARS-CoV-2 S-2P protein [2], the “IC50” value was 3.01 µg/mL.

B11: eCC65.1-9 (antibody, V domains shown)
VH: B2 VH with E27D, S53E, A57T, G101E, N102K
VL: B2 VL with N28T, Q91G, S93K
In the case of B11, in the test with SARS-CoV-2 S-2P protein [1], the affinity, expressed as Kd, was 0.0102 nM and the kon amounted to 306000 M⁻¹ s⁻¹. The “IC50” value in the test with SARS-CoV-2 S-2P protein [2] turned out to be 2.6 µg/mL.

B12: eCC65.1-10 (antibody, V domains shown)
VH: B2 VH with E27D, A57T, G101E, R106S
VL: B2 VL with S29K, Q91G, S92A
Take B12: in the test with SARS-CoV-2 S-2P protein [1], the Kd is < 0.001 nM and the kon amounted to 278000 M⁻¹ s⁻¹. In the test with SARS-CoV-2 S-2P protein [2], the “IC50” value turned out to be 1.86 µg/mL.

B13: eCC65.1-5 (antibody, V domains shown)
VH: B2 VH with S24T, E27T, A57T, L98I, G101E
VL: B2 VL with S29K, H49G, Q91G
On to B13, for which, in the test with SARS-CoV-2 S-2P protein [1], the Kd was < 0.001 nM and the kon was found to be 286000 M⁻¹ s⁻¹. Also, the “IC50” value with SARS-CoV-2 S-2P protein [2] turned out to be 1.63 µg/mL.
